Experimental data reported in paper PMC12618757.

Biological target: EGFP-mPiezo1 (murine Piezo1 fused to EGFP) (murine) (UniProt E2JF22)
Chain of UniProt E2JF22 (E2JF22 whole entry, the tested form may be a part): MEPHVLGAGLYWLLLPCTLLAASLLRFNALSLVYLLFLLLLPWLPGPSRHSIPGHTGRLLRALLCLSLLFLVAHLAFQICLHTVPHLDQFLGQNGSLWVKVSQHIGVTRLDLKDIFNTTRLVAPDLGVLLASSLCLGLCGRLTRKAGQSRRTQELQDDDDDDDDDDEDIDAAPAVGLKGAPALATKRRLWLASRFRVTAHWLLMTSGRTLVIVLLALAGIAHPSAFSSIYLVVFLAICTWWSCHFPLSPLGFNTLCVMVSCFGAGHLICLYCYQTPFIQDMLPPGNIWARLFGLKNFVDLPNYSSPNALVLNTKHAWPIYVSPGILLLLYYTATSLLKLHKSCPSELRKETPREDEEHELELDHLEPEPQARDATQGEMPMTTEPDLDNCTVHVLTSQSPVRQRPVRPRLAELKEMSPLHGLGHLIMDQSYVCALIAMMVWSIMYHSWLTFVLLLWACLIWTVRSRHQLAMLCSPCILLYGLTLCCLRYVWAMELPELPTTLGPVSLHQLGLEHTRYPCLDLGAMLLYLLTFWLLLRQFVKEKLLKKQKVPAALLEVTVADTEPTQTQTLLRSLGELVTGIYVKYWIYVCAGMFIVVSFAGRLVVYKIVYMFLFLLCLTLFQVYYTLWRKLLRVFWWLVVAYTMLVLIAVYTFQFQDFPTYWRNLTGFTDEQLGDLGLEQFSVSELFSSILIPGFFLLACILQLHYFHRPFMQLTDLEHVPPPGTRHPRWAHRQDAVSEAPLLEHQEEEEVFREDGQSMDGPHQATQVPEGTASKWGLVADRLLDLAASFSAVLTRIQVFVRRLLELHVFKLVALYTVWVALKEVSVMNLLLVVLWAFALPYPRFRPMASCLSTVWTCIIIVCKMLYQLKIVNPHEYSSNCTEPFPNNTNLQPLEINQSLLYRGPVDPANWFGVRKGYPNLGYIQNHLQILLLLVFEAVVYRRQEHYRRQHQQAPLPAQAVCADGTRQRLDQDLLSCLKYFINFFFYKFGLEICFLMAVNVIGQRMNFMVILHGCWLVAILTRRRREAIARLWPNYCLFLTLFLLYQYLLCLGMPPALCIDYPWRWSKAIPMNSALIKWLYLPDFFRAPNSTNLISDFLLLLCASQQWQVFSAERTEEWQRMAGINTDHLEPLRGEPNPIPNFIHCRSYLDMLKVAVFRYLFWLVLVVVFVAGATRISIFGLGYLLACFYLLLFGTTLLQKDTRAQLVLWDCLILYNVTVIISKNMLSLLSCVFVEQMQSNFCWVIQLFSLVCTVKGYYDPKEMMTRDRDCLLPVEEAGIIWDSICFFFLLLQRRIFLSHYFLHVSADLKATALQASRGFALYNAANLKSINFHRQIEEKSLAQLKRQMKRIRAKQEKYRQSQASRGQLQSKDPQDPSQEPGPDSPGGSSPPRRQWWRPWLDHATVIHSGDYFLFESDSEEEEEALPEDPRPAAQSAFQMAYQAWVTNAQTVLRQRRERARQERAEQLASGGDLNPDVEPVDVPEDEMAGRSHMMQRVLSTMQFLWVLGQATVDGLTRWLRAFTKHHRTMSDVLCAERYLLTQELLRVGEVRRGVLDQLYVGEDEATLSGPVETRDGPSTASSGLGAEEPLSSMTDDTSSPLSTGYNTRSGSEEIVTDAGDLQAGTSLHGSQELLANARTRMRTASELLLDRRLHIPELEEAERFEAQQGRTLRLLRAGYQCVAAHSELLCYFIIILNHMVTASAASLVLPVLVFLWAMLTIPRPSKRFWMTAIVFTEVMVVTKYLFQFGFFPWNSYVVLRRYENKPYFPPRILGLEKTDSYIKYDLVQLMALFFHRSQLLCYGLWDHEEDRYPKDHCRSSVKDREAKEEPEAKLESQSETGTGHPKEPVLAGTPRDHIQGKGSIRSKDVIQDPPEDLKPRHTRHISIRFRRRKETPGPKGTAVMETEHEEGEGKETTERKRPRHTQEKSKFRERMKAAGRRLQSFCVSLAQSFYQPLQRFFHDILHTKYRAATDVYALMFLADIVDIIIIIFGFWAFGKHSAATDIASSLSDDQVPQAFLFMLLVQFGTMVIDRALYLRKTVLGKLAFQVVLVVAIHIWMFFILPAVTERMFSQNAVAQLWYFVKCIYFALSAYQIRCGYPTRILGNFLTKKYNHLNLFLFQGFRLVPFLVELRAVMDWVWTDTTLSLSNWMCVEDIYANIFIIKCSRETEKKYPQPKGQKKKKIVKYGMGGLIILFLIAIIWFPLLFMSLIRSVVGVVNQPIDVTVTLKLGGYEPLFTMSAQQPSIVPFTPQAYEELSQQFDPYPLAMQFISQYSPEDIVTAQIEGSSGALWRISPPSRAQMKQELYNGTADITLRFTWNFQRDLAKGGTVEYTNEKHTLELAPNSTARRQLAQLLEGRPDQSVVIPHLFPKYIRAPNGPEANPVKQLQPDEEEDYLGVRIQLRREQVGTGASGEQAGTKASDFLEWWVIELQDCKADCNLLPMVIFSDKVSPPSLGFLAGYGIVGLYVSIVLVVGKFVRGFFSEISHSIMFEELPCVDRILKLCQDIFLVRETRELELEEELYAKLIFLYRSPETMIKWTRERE

Work on LecB-S22A mutant (natural protein) yielded an average stretch-induced current at −80 mmHg, EGFP-mPiezo1-overexpressing H1299 cells, LecB-S22A for 3 h (not significantly changed compared to untreated control cells) of -36.5 pA.
